Test results published in the supplement of paper PMC9170038.

Test system: MS2 coat protein
Test: apparent KD of MS2 coat protein; higher = weaker reporter binding
Conditions: Eterna round: R107
Protocol: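 RNA-MaP round R107: designed RNA switches with theophylline, tryptophan, arginine or FMN aptamers are transcribed on-chip within common flanks. They are titrated with SNAP-549-labelled MS2 coat protein in RNA-MaP buffer (100 mM Tris pH 7.5, 80 mM KCl, 4 mM MgCl2), without ligand or with the indicated ligand. Median apparent KD per design.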

[1] = input ligand: theophylline 20 uM
[2] = input ligand: tryptophan 2.4 mM
[3] = input ligand: theophylline 2 mM

Sequence | apparent KD of MS2 coat protein (input ligand: arginine 13.2 mM) | apparent KD of MS2 coat protein [1] | apparent KD of MS2 coat protein [2] | apparent KD of MS2 coat protein [3] | apparent KD of MS2 coat protein (input ligand: none)
AGCGACAUGCAUGAUACCAGCUACAUGAGGAUCACCCAUGUACGUCAGUAAUGACUGUGUAGCCCUUGGCAGCAUAAAGCAUGUC [Exclusion - Theophylline B (Freestyle 17)] | 22.8 nM | 44.5 nM | 26.5 nM | – | –
AGCGAUAUGCAUGAUACCAGCUACAUGAGGAUCACCCAUGUGCGUCAGAAAUGACUGUGUAGCCCUUGGCAGCAUAGAGCAUGUA [Exclusion - Theophylline B (Freestyle 11)] | 35.2 nM | 46.2 nM | 38.4 nM | – | –
AGCGCGGUGAUGGUAGCCGGACGCUAGGUACGAGGACCGGUACGGCCGCCACUCGGAGUCCUACGACAUGAGGAUCACCCAUGUA [Same State Trp A GF16] | 61.2 nM | 106 nM | – | 111 nM | –
AGCGCUGUGCAUGAUACCAGCUACAUGAGGAUCACCCAUGUGCGUCAGAAAUGACUGUGUAGCCCUUGGCAGCAUAAAGCAUGUA [Exclusion - Theophylline B (Freestyle 8)] | 19.7 nM | 26.6 nM | 19.6 nM | – | –
AGGAAACAACAUGAGGAUCACCCAUGUGAUACCAGUCAAAUAAAAGACCCUUGGCAGCACACAUGACAUGAGGAUCACCCAUGUA [AstrosSSTheA#1] | 24.8 nM | 41.5 nM | 59.8 nM | – | –
AGGACGGUCGGAAGGAGCGGUACAUGAGGAUCACCCAUGUACUUAUGGGCAUCCGUAGAGUGCCAGGUAGGUCGCCGAUUGCGGG [XArg-B11] | 17.2 nM | 29 nM | 34.1 nM | 21.8 nM | 33 nM
AGUAGACACGCGGCCGCCACUUGAGGAUCACCCAAGUGGUGUGUACUUGAAAACAAGUGCACAUCAAGGACCGGGCGUGUCUACA [Omei Tryp B SS D v3] | 7.19 nM | 8.01 nM | 8.54 nM | 7.12 nM | 7.05 nM
AGUAGACACGCGGCCGCCACUUGAGGAUCACCCAAGUGGUGUGUACUUGAAACAAGUGCACAAUCAAGGACCGGGCGUGUCUACA [Omei Tryp B SS D v4] | 5.02 nM | 8.77 nM | 13 nM | 7.77 nM | 7.02 nM
AGUAGACACGCGGCCGCCACUUGAGGAUCACCCAGGUGGUGUGUACUUGAAACAAGUGCACAAUCAAGGACCGGGCGUGUCUACA [Omei Tryp B SS D v1] | 12.6 nM | 17.4 nM | 83.7 nM | 15.1 nM | 13.5 nM
AGUAUCAGUGGAAGGAGCGUCGCGACUGCUACAUGAGGAUCACCCAUGUCGCCUUGAGCGCGACAGGUAGGUCGCCACGGUAGGC [SS-ArgB1] | 28.6 nM | 68.8 nM | 40.3 nM | 72.1 nM | 49.6 nM
AGUCUUAAUGGAAGGAGCGCAGUCAUAACAUGAGGAUCACCCAUGUCGAGGUGAGGGUCAUUGCAGGUAGGUCGCCAUACUAGGA [Same State - Arginine B (Freestyle 2)] | 84.6 nM | 264 nM | 131 nM | 240 nM | 181 nM
AGUUUAGACACGGCCGCCACUCGUGACAGAUUUCGCAGUGGUCUACAUGAGGAUCACCCAUGUCUGAGGACCGGGUGUUGAGUUU [XTryp B #8] | 76.3 nM | 177 nM | – | 194 nM | –
AUAAAUAAAACCGAUACCAGCCUUAUACAUGAGGAUCACCCAUGUUAUGCUUCCUUUUUUGGCCCUUGGCAGCGGAAAUGGGUAA [AstrosSSTheB#1] | 45.3 nM | 74.4 nM | 75.6 nM | – | –
AUAACAUGAGGAUCACCCAUGUAAGCAGAUACCAGCUAGGAAACUAGCCCUUGGCAGCUGCAAUCAUGGGUGUGGUAUCUGCUAA [(M1)-(M2)-(T1)-(T2)-(M)'-(T)'_Design5] | 21.5 nM | 39.7 nM | 16.4 nM | – | –
AUAACAUGAGGAUCACCCAUGUAGAGUGAUACCAGACUAUGUAAUGUCCCUUGGCAGCACAAGUAAAGUUAUAAAUAAUGAUAGA [JR_SSTheophyA_Sub001] | 89.3 nM | 126 nM | 136 nM | – | –
AUAAGGUAUCUGCUAUCCUCAUGAGCAGAUACCAGCUAGGAAACUAGCCCUUGGCAGCUGCAACAUGAGGAUCACCCAUGUAAUA [(T)'-(M)'-(T1)-(T2)-(M1)-(M2)_Design1] | 64.4 nM | 118 nM | 256 nM | – | –
AUAAUAAAGUCGGCCGCCACUAUAAACAUGAGGAACAUGAGGAUCACCCAUGUAUGAGGAUCACCUAGGACCGGGACAAAUAUUA [AstrosExyTryB#3] | 47.3 nM | 88.3 nM | 54.7 nM | 63.1 nM | 57.3 nM
AUAAUAAUGUCGGCCGCCACUAUAAACAUGAGGAACAUGAGGAUCACCCAUGUAUGAGGAUCACCUAGGACCGGGACUAAUAUUA [AstrosExyTryB#5] | 33.9 nM | 57.1 nM | – | 52.9 nM | –
AUACAUGAGGAUCACCCAUGUAAAGUUGAAGGAGCGACCAGAGGGUCAGGUAGGUCGCAACACAUGAGGAUCACCCAUGUAUCGA [DOUBLE!!! :-D #6] | 53.3 nM | 78.4 nM | 71.4 nM | 79.4 nM | 83.6 nM

Sequence | apparent KD of MS2 coat protein (input ligand: arginine 13.2 mM) | apparent KD of MS2 coat protein [1] | apparent KD of MS2 coat protein [2] | apparent KD of MS2 coat protein [3] | apparent KD of MS2 coat protein (input ligand: none)
AUACAUGAGGAUCACCCAUGUAUAGUUGAAGGAGCGACCGGUGGGUCAGGUAGGUCGCAGCGCAUGGCGUCCACGCGUGUAUGCC [#1 Exclusion - Arginine A Attempt #30 (Inspired by Pi)] | 10.7 nM | 16.4 nM | 11.1 nM | 11.3 nM | 10.7 nM
AUACAUGAGGAUCACCCAUGUUACACUGAAGGAGCGACAUGUUUGUCAGGUAGGUCGCAGUGAAGUUUAAUAAUUCUUUGAUCUU [#06 Same State - Arginine A] | 22.4 nM | 36.4 nM | 23.7 nM | 26.5 nM | 24 nM
AUAUGAUCAUGGGAUACCAGAAAUGGUAUUCCUUUAUUUCUUACAUGAGGAUCACCCAUGUUCCCUUGGCAGCUUAUGAUCAUAU [ETHB #5] | 53.7 nM | 85.8 nM | 67.9 nM | – | –
AUAUGAUCAUGUGAUACCAGAAAUGGUAUUCCUCGCUGGAUUACAUGAGGAUCACCCAUGUUCCCUUGGCAGCAUAUGAUCAUAU [#01 Exclusion-TheophyllineB] | 21.3 nM | 36.3 nM | 20.9 nM | – | –
AUGAAGCUAAGAGAUACCAGUGACCACAGAUACAUGAGGAUCACCCAUGUCUCAAAUUGUCACCCUUGGCAGCUCACUAUCGAAG [theeternabot_sameState_MS2_Theo_B_29] | 11.2 nM | 11.9 nM | 10.2 nM | – | –
AUGCACAUCUAGGAUACCAGCACCCUUAUGUCACUAGUUAACAUGAGGAUCACCCAUGUUUGCCCUUGGCAGCCUCAUUGACCAU [theeternabot_exclusion_MS2_Theo_B_9] | 59.5 nM | 92.7 nM | 59.7 nM | – | –
AUGUAGAACCGAAGGAGCGCGAUGACAUGAGGAUCACCCAUGUAUUUGUGGUGGCUUCGAUCGCAGGUAGGUCGCGGAAGUAGUA [#04 Exclusion - Arginine B] | 96.6 nM | 162 nM | 211 nM | 346 nM | 128 nM
AUGUCGUUGAAUAUAGCGGCUUGGAGUGAUACCAGUAUGAUCCAAUACCCUUGGCAGCAUUACAUGAGGAUCACCCAUGUUCCAG [SSTheo A #24] | 17.2 nM | 37.2 nM | 34 nM | 53.4 nM | 22.6 nM
AUUAACAUGAGGAUCACCCAUGUUCUCACACGAGGACCGGUACGGCCGCCACUCGGUUUGGUAUUGGUCACUAGGCAGUUAGGAG [theeternabot_sameState_MS2_Trp_A_12] | 15.2 nM | 26.7 nM | – | 17 nM | –
AUUAUAGUUUAUAAGGAAAUUGAAACAGAAGGAGCGUGAGUAAUCACAGGUAGGUCGCUGGUAGUACAUGAGGAUCACCCAUGUU [JR_Nu_SSArginiA_Sub019] | 21.9 nM | 32.2 nM | 22.4 nM | 26.5 nM | 24.1 nM
AUUCAUGGAAACAUGACAUACAUAACCGGUCGAGGACCGGUACGGCCGCCACUCGUUUGGAGGCACAUGAGGAUCACCCAUGUUA [SS Tryp A #9] | 21.7 nM | 35.9 nM | – | 28.2 nM | –
AUUCAUGGAAACAUGAGAUAUCCUACCGGUCGAGGACCGGUACGGCCGCCACUCGGUUGGUGGCACAUGAGGAUCACCCAUGUUA [SS Tryp A #12] | 77.6 nM | 310 nM | – | 378 nM | –
CAAUAAGUACCGGUCCUCAGAUCCUCAUGACGAGGACCGGUACGGCCGCCACUCGAAACAUGAGGAUCACCCAUGUAAUAAUAAC [Brourdmod02] | 20.6 nM | 68.4 nM | – | 51.9 nM | –
CAAUAGAUAGCGGCCGCCACUUACUCAUGAGGUAACAACAUGAGGAUCACCCAUGUUUGAGGAUCAAGGACCGGGCUAUUUAUUG [AstrosSSTryB#7] | 29.1 nM | 39.1 nM | 19.1 nM | 31.9 nM | 27.5 nM
CACGCACGAUCGGCCGCCACUCGUGUAGCUUACAUGAGGAUCACCCAUGUAUGUUCAUUCAUAUAGAGGACCGGGAUCGUGCGUG [#05 Same State - Tryptophan B] | 9.09 nM | 18.5 nM | 11.7 nM | 12.1 nM | 12.8 nM
CAUAGCAAAAGUGAUACCAGAGUUCGAGGGAACAUGAGGAUCACCCAUGUGCUUGUACAACUCCCUUGGCAGCACAGAGCAAUUA [theeternabot_sameState_MS2_Theo_B_16] | 24.3 nM | 22.1 nM | 26.9 nM | – | –
CAUAUAUAUGGAAGGAGCGCGAUUACAUAACAUGAGGAUCACCCAUGUAAGAAAUUAUUCAUGCAGGUAGGUCGCCAUAUAUAUG [Same State Arginine B GF6] | 29.3 nM | 35.3 nM | 26.6 nM | 27 nM | 24 nM
CAUUUUAGAAAACUAAAAUGAGUGGGUGAACGAGGACCGGUACGGCCGCCACUCGGACAUGAGGAUCACCCAUGUCCAUGUGAAA [AstrosExyTryA#22] | 22.8 nM | 15 nM | 37.8 nM | 14.4 nM | 14.1 nM
